The values that follow are results of earlier work, collected in US20230301999A1, “METHODS OF TREATING GOUT” (Horizon Therapeutics USA, Inc., priority 2020, published 2023).

Where two headings read alike, the source gives them in different places.

For series [1], the system named is patients with gout. The note with it: patients treated with allopurinol.
Series [2] relates to patients with refractory chronic gout. As to conditions: bi-weekly or every 4 weeks for up to 30 months.
The conditions of series [3]: single IV infusions of 0.5 mg to 12 mg; 23 patients with symptomatic gout.
Series [4] deals with patients with refractory chronic gout. The note with it: Phase 2 program.
For series [5], the system named is subjects with gout. As to conditions: Phase 2, 30-min administration in the majority.
The subject of series [6] is hyperuricemic patients with symptomatic gout.
Series [7] concerns vacuolated cells. The note with it: no associated clinical manifestations.
Series [8] has as its system subjects with refractory gout. The note with it: doses of 4 to 12 mg; from 11.1±0.6 mg/dL.
In series [9] the test system is patients receiving pegloticase.
For series [10] the following is noted: 2 hemodialysis sessions; pre- and post-dialyzer samples.
The conditions of series [11]: rat; during 7 days after injection.

Consider `Oc1ncnc2[nH]ncc12` [allopurinol], for which the “patients developing allergic reactions” value in [1] was “Approximately 2%”.
As for pegloticase, the long-term safety result in [2] was “No new safety signals were observed”. For the same compound, the “maximum serum concentrations vs dose” value in [3] was “increased in proportion to the dose administered”. Moreover, in series [4], the dose-response plateau dose is recorded as 12 mg; the minimally effective dose was 4 mg; the “safe and optimally effective dose” value is reported as 8 mg. In addition, in series [5], the anaphylaxis entry was “no subjects experienced anaphylaxis”. Besides, the “subjects experiencing an IR” value in series [5] (no MTX, majority without IR prophylaxis) is recorded as 44%. Besides, in [6] (8 mg every 2 weeks, Phase 3, 120-min infusion, IR prophylaxis, no pre-infusion uric acid monitoring), the “subjects with infusion reactions (IRs)” value was 26%. For the same compound, the “subjects with infusion-related reactions” value in series [6] (8 mg every 4 weeks, Phase 3) was 40%. In addition, the “patients maintaining therapeutic response” value in [6] (6 months, pegloticase alone, previously reported) is reported as 42%. Moreover, the “patients with IRs in whom loss of response (SUA≥6 mg/dL) preceded the first IR” value in series [6] (20/21 patients) is 95%. For the same compound, the subjects with anaphylaxis in series [6] (Phase 3, 120-min infusion, IR prophylaxis) is listed as 5%. Moreover, the IR rate entry in series [6] (clinical practice/studies with a uric acid monitoring protocol) is reported as “about 8%”. Besides, under “2° C. to 8° C.”, the “stability diluted in infusion bags” value was 4 h. Under “room temperature (20° C. to 25° C.)”, the “stability diluted in infusion bags” value is 4 h. Moreover, the “finding in chronic toxicology studies” value in series [7] is recorded as “dose-dependent increase in vacuolated cells”. Moreover, in series [8], the “pUAc after fall, mean±SD” value was 1.0±0.5 mg/dL. Also, the “patients with antibody titer exceeding 1:2430 maintaining response” value in [9] (7 of 65, another study) is on record as 10.8%. Besides, the “patients with titers exceeding 1:2430 developing IRs” value in [9] (31 of 52) was 60%. Moreover, the “patients never having antibody titer above 1:2430 maintaining response” value in series [9] (58/65, another study) is given as 89.2%. The “participants with high titers developing IR” value in [9] (second study) is on record as 60%. The removal by dialysis result in series [10] is listed as “not removed by the dialysis process”. Besides, the “dose excreted in the urine” value in series [11] is listed as “Approximately 70%”.
